From publication PMC9270245, “A metal ion–dependent conformational switch modulates activity of the Plasmodium M17 aminopeptidase” (The Journal of Biological Chemistry, 2022)

Target: the molecule itself
Test: SEC; analytical gel filtration, 100 ug purified protein, Superdex S200 Increase 10/300, 50 mM Hepes (pH 8.0), 300 mM NaCl, 1 mM MnCl2; approximate molecular weight by interpolation of a standard curve

Protein	stoichiometry N
M17 aminopeptidase from Plasmodium falciparum, wildtype (truncated, amino acids 85-605) (enzyme, UniProt Q8IL11 85-605, looked up, Homohexamer, a dimer of trimers; also called PfA-M17; wildtype PfA-M17; source: E. coli BL21(DE3), autoinduction, purified (nickel-nitrilotriacetic acid agarose, gel filtration on Superdex S200)) ASEVPQVVSLDPTSIPIEYNTPIHDIKVQVYDIKGGCNVEEGLTIFLVNNPGKENGPVKISSKVNDKNVSEFLKDENMEKFNVKLGTSKHFYMFNDNKNSVAVGYVGCGSVADLSEADMKRVVLSLVTMLHDNKLSKLTVVFEINVDKNLFRFFLETLFYEYMTDERFKSTDKNVNMEYIKHLGVYINNADTYKEEVEKARVYYFGTYYASQLIAAPSNYCNPVSLSNAAVELAQKLNLEYKILGVKELEELKMGAYLSVGKGSMYPNKFIHLTYKSKGDVKKKIALVGKGITFDSGGYNLKAAPGSMIDLMKFDMSGCAAVLGCAYCVGTLKPENVEIHFLSAVCENMVSKNSYRPGDIITASNGKTIEVGNTDAEGRLTLADALVYAEKLGVDYIVDIATLTGAMLYSLGTSYAGVFGNNEELINKILNSSKTSNEPVWWLPIINEYRATLNSKYADINNISSSVKASSIVASLFLKEFVQNTAWAHIDIAGVSWNFKARKPKGFGVRLLTEFVLNDAL	6
PfA-M17 (A387P) (enzyme, M17 aminopeptidase of Plasmodium falciparum, amino acids 85-605, with a proline in place of Ala387 by site-directed mutagenesis (PCR); the PDB entries hold the wildtype parent; source: E. coli BL21(DE3), autoinduction, purified (nickel-nitrilotriacetic acid agarose, gel filtration on Superdex S200)) ASEVPQVVSLDPTSIPIEYNTPIHDIKVQVYDIKGGCNVEEGLTIFLVNNPGKENGPVKISSKVNDKNVSEFLKDENMEKFNVKLGTSKHFYMFNDNKNSVAVGYVGCGSVADLSEADMKRVVLSLVTMLHDNKLSKLTVVFEINVDKNLFRFFLETLFYEYMTDERFKSTDKNVNMEYIKHLGVYINNADTYKEEVEKARVYYFGTYYASQLIAAPSNYCNPVSLSNAAVELAQKLNLEYKILGVKELEELKMGAYLSVGKGSMYPNKFIHLTYKSKGDVKKKIALVGKGITFDSGGYNLKPAPGSMIDLMKFDMSGCAAVLGCAYCVGTLKPENVEIHFLSAVCENMVSKNSYRPGDIITASNGKTIEVGNTDAEGRLTLADALVYAEKLGVDYIVDIATLTGAMLYSLGTSYAGVFGNNEELINKILNSSKTSNEPVWWLPIINEYRATLNSKYADINNISSSVKASSIVASLFLKEFVQNTAWAHIDIAGVSWNFKARKPKGFGVRLLTEFVLNDAL	6
